# Experiment: soluble on expression in E. coli; label from the status in PepcDB or PDB records
row,Sequence,soluble on expression in E. coli
1,MSLRHVIREVRADLIASPVQTGFQDATRKVETVGMCVIRVNTDQGLTGIGVTYHEVGGEAIKEMIERYYGPKLIGRDPFETEEIWEELFHYARGVGRKGLSFCALSAVDIALWDLKGKIMDLPLYRLLGGNKKKVPVYASGGWTSYDDDALVAEALEMVRRGYKMIKLKVGVEGGRNIRRDTQRCRKVREAIGPDIGFMVDANNAFHSGDAVRLANEIREYDILFFEEPVFADDIPGLRRFRQGTDIPLGTGEHEYTRYGARDLILGEAVDYLQMDVTRCGGITEMLKVIALSQAWNLAFAPHAMEHIHMHLVSAAANGAFLERLFLFEDITAMVFKDAPVPEEGILTIPDKPGLGLELNSEFLREGHHHHHH,soluble
2,MQEAVLQLIEVQLAQEEVTESPLGGDENAQLHASGYYALFVDTVPDDVKRLYTEAATSDFAALAQTAHRLKGVFAMLNLVPGKQLCETLEHLIREKDVPGIEKYISDIDSYVKSLL,soluble
3,MTRYLRLSGLEPFVLTPDIPFVNVGERTNVTGSARFRKLITNRDYAAALEVARDQVQNGAQILDVNMDEGLIDSKAAMVEFLNLIASEPDIARVPLMIDSSKWEVIEAGLKCVQGKPVVNSISLKEGEESFRRQAGLCLAYGAAVVVMAFDEEGQADSFARKTTICARAYRILVEEVGFPPEDIIFDPNVFAVATGIEEHDNYGVDFIEAARWIRANLPHAHVSGGVSNLSFSFRGNEPVREAMHAVFLYHAIRAGMDMGIVNAGQLAVYDQIDPDLREACEDVVLNRKPKQGGTATERLLALAER,not soluble
4,MGSDKIHHHHHHMAEAQLSLNLDIKHDASLSDFSGPGWMSIIDAVRQLHVGLIGQLYLFGSPATGKSHLLSAICESFIEMDKSAICLSLNELIHTDVNVLSSLENFSLIAIDDLEVIEQNSQWQEALFHLINRSREGQRQLLFAANKPASELPFQLRDLLTRLAQAPSFKVPTGHDLADREALLQSILRRRGWQFDERIANYLLTEGPHRIGAMMEVLNYIQPMFSNLGRSNISKAVIGDALRTIDEQTLAAELADIAQESQVDNDAADQDQHSQHTMPLDF,not soluble
5,MAHHHHHHMGAPLREDPYNIKTPISDGTTIIGIIYEHGVMLACDTRTSSGTLVSNKCSRKINRINENIYACRSGASAHSQKVIELIKHFCLSMKCENRKKGRFHEDEVITDDLANEEDIDLSAINNPFGLAQNMDPNYVTKHKYFYEDKFMDFNPLVENVAHMTKKLLYANNHFLSCGLILGGYDKEKKQQLYSVNLNGSIVQRFDYAVSGSGSVYIQSYLQDKYKKNMSKKECFELILGCVKYAMYNDNSSGGIVRIVNMTKLFVEEFTVTNTQLHFDY,soluble
6,MPNYKLTYFNMRGRAEIIRYIFAYLDIQYEDHRIEQADWPEIKSTLPFGKIPILEVDGLTLHQSLAIARYLTKNTDLAGNTEMEQCHVDAIVDTLDDFMSCFPWAEKKQDVKEQMFNELLTYNAPHLMQDLDTYLGGREWLIGNSVTWADFYWEICSTTLLVFKPDLLDNHPRLVTLRKKVQAIPAVANWIKRRPQTKL,soluble
7,MNKERQDLSGLEAVWLFGYGSLIYKVDFPYLERAAASIQGWSRRFWQGSHDHRGTPEAPGRVLTLTETPGEECTGMAYKVSPDVFEHLDHREKNGYLRFTTPMSFRDGSQQEGLVYIATEDNEAFLGEATASEIASHIARSSGPSGPNAEYLVKLQLALQQLGVNDPHITQVYEALMADRASLEHHHHHH,soluble
8,MGSFQAVAPTRLYRMIADQIAGRIRAGDFPAGGRLPAERELAEQLQVSRASVREALIALEIEGYVEVRVGTGVFVAAPRADGDYGVAPAPQPGHTDIGPFDLLDTRLLLEPECASLAAQKASPAQIAAISSAHAAMSLSDSPGAHDQAFHGAIAAACGNAALAAAISHIWHLSATSPVFSRLEQHFVTTKVWEAAEREHERILAAIVDRDPIRARHAMHDHLVGILARLREDFGSGAIR,not soluble
9,MGHHHHHHGGHMSLRSYLGSISTSKTEVNSMKMHVLKLLIPTMALLLSACASLPPELGNPDDKSVVTQYSAWLERDPATQSPVRMGGVVANISNQKDRTRVELVNLPIDSAGRPNIHQEPQGRFVAYVPGFLDPITYGEGRLLTLYGTTAPSEQGKVGDYEHTYPVMNAQGYHLWRVEERVEVDDIGPYMFPCRGFYCWPRTMPERDGKIIQEVKEGGS,not soluble
10,MSLWRLKFFLDFEKEEKWLEEMAWKGYQLESTTFGYTFRYTEPEDATIRIDHRVFSRKSEFINYCTLFEDSGWEHIAGNRWSGTYYFKKVNEESEDDIFSDPMSRAGKYKRLSKTEGHHHHHH,not soluble
11,MGSDKIHHHHHHVLVVVPEILDPKVDLVFKKVFGSQENKSILLSFLNAVLNWTGEQKIVDVKILNPYLEPESIDDSVGILDIKLQLENDDLVDVEMQIGNLGNMERRSTYYTCRMFGDQNISGGRYQDLNRVIAINVLDFTRIKNIERYHTKFRLRETQENIDLTDAIEIHFIELPKLRQEMASYTDPLDRWVVFLKGGWNMELLDRLAKEDPAIGQAKQVLEQMASNPRERELYELRRKAILDRNSALYEAKMEGKAEGKAEGQAIILLRLLKKKFGFMPVEMENRVMSMSAEKLQELAEAIFDLGTIDELNNFISR,not soluble
12,MSLKIILPVKPISQLFPIPFVMGCEGVSAAMLLQFNNYDIKATQIMSHWPKHPTNPYKGYVGHPLLVKFGHHQTIFPDAFAPFLKQYDSRIVDGTGTSLNQLEKFIDKGQPVIIYHTSLGSKPLRRVFHFDNQPTKLVSNIHVTLLIGYDDDYYYYIDPLWSRLSKFVIFPSIIPNSKQIIKIKKHTLENSYNAPGKKCIYIDNEGHHHHHH,not soluble
13,MKDSPFYQHYDLDLKDKPLGEGSFSICRKCVHKKSNQAFAVKIISKRMEANTQKEITALKLCEGHPNIVKLHEVFHDQLHTFLVMELLNGGELFERIKKKKHFSETEASYIMRKLVSAVSHMHDVGVVHRDLKPENLLFTDENDNLEIKIIDFGFARLKPPDNQPLKTPCFTLHYAAPELLNQNGYDESCDLWSLGVILYTMLSGQVPFQSHDRSLTCTSAVEIMKKIKKGDFSFEGEAWKNVSQEAKDLIQGLLTVDPNKRLKMSGLRYNEWLQDGSQLSSNPLMTPDILGSSGAAVHTCVKATFHAFNKYKREGFCLQNVDKA,soluble
14,MNVLFLSISLGSGHIRAAEALQKFVVQKYPKSKTLIVDTFKYINPLIHTVVVDGYLNIVKYVPEIYGGLYRMSEHIKNIDRMSRGFSNLLTPKIHRLIQSFKPSIIVCTHPFPLQMIAHLKKHYNLDVPSIAIVTDFVNHPFWFQNNIEAYIVAHDYIKRDMIECGISEDRIFTYGLPVAPEFLKSIPKEQARKELSLENTLTVLLMGGSLGIGDIENTFKSFAKCKRDIQIIAVAGKNTALKKRLDSLAASFPMPVKIFGYTDSIPMLMDASDFIVTKPGAMTISEALVKRLPALIISPIPGQEERNEQFLVNSGTAVRIYKNTKIDSVLCQVYDNKLRYKQMKEIAGNLANPDSGRNILSLIEKLVNDNEKGLFKYSFNAF,soluble
15,ARDTLFVNLTDATDSQSLKLSDFGNTVRYVPLETNEVCLIGNNPHIALLEDKIVIATKDQCFLFHKQTGKYICSIGHIGDDPSGYSSTNYWIDDAGLFYFFRAPDQLLKYNQKGEMTGKIQIPHIPAAPDFFAFSDSTIIAHCNSSIGLESSNSLLFLNSFGEKLDSIPNLLKSPSIPSPDNISSLSIIKRGAGFFGNLGRRGVMIIKDKEQGELLLPLYNPSLWSSENEVRFRETFTDTIYTIKNRKLYPYMVFHTDTDHSSANPLWYSNPQSIYVAYVLENTHSVFFQYVKNKQVYNGLYNKETQQTKFAKCQQFIVDDLTSEQELKVDLSALCSYKGEYGFILEAASIPDASQKQSDNKNENIPHWMSQLDEDANPVIAIVSDK,soluble
16,MVVEVDSMPAASSVKKPFGLRSKMGKWCCRCFPCYRESGKSNVGTSGDHDDSAMKTLRSKMGKWCHHCFPCCRGSGKSNVGASGDHDDSAMKTLRNKMGKWCCHCFPCCRGSGKSKVGAWGDYDDSAFMEPRYHVRGEDLDKLHRAAWWGKVPRKDLIVMLRDTDVNKKDKQKRTALHLASANGNSEVVKLLLDRRCQLNVLDNKKRTALIKVCSSQLYQHEAVQCQEDECALMLLEHGTDPNIPDEYGNTTLHYAIYNEDKLMAKALLLYGADIESKNKHGLTPLLLGVHEQKQQVVKFLIKKKANLNALDRYGRTALILAVCCGSASIVSLLLEQNIDVSSQDLSGQTAREYAVSSHHHVICQLLSDYKEKQMLKISSENSNPENVSRTRNK,not soluble
17,MGSDKIHHHHHHYATVEPLHINRFDKDLFRLIDTGDTTLQPELIKQYPEMLDIIGKGILNLQTIETPGFFEKMRNYYSEPTLKGLYRDAITQYDSVEDIEKSLGYGFAYLKENFPSMQIPAIYMHVSGFNQNVLVGDSLLSLSIDKYMGKDYPLYQDFFYDSQKLKMQRGLVVPDYLAGWLMSEYPFAGKENVLLDRMIYEGKIKYLLSQALGVPDAAELMGYTEQAYNWCKDNEGTIWKAIIERKHLYTPDQLTTSQYFEDTPTIFPGNDAPGNIGTWIGWQIINQYIKETGSTPEALMQNNDAQEILTASKYKPL,not soluble
18,VELPTEYTEQFSSQPTLNSKPIIKFEFTGNSVDAPVLSMASKKFGIDFSILMSQIDYAGGVKFGFVIAEVEGDGEAITAAKCYLINNNVKVEVLGYVG,not soluble
19,GPGSMFNVVLVEPEIPPNTGNVIRLCANTGARLHLIEPLGFPLDDAKMRRAGLDYHEYAQMRVHRDWDAFVAAEAPDPARMFAFTTRGSGRFHDRAFEPGDWFVFGAETRGLAPALVDRFAPEQRVRLPMRPGNRSLNLSNTVAVVVFEAWRQAGFEGGA,soluble
20,MNTQSLMSSTHTIAASDPHIQVMGRTHINDDASLTFGYPGVSLSTIVAGSRLTAEMQSSNGNSWIDVIIDNHPPTSIKLDAQQQTVELFHFPNSGEHRVEIIHRSENWHGQVTLKQLTLTGTQFLPAPVLPQRKILVLGDSVTCGEAIDRVAGEDKNTRWWNARESYGMLTAKALDAQVQLVCWGGRGLIRSWNGKTDDANLPDFYQFTLGDTGQAPQWDHHRYQPDLIISAIGTNDFSPGIPDRATYINTYTRFVRTLLDNHPQATIVLTEGAILNGDKKAALVSYIGETRQQLHSNRVFYASSSHHPGDNSDAHPTKDQHAAMARELTPQLRQIMDWLEHHHHHH,soluble
21,MGSDKIHHHHHHAAEGNDKKQDLIVKTTQAVPVSHQGDKEFSFIARPFRTSELSFRVGGPIDRFDVYAGNRYQQGSIIAEIDPRDFRIRKERAEAIYHQAKAEFERIQKLYGKGNVSASTYEKAKADYITAKTTFNTASYELEDTHLIAPFNGYVGEVYIEKFQDVKATQPIISFIDIDQLKLEIYVTQDIARAVQALDTIQVRFDAQPDKVYNAKIMEISKGTTRNNLSYLLTALLPNKEGKLLAGMSGKASLNAPSVSTLSQGAAIPQTALCHRPTEGDYLWVVNSKTQQVTKRKVKKGDLLPNGYVSITEGLYPDETVANSGLRFLSDGMKISVENE,not soluble
22,MGSDKIHHHHHHMPNKDIDDLVRFLKDKQISTITKKYHSYLTFHGLKAANVFILKEGIIKTSVILQDGREFNISYINQPDVISLLHDEALQYDEQPFNVRIESETATFYQVNRVEFWQYVNAKSELQNYVKQYYRHRLSETFARIQRLTMNGKMGALANFLHDIAEKFGRDLPDEAGVLIDFNVTNEDIAGFCGIANQTSVSRMMRKLKLEDIIDFGMSNDGKRRIIITNMKKLDDYIAY,not soluble
23,AHKKIFLVEDNKADIRLIQEALANSTVPHEVVTVRDGMEAMAYLRQEGEYANASRPDLILLDLNLPKKDGREVLAEIKSDPTLKRIPVVVLSTSINEDDIFHSYDLHVNCYITKSANLSQLFQIVKGIEEFWLSTATLPS,soluble
